From publication PMC5141367, “Structural decoding of netrin-4 reveals a regulatory function towards mature basement membranes” (Nature Communications, 2016)
One block for each molecule: values may come before it.

B1: full-length Net4 (Net4-FL) (natural protein, Mus musculus, UniProt Q9JI33 20-628, looked up)
chain: LNGVAGANSRCEKACNPRMGNLALGRKLRADTMCGQNATELFCFYSENADLTCRQPKCDKCNAAHSHLAHPPSAMADSSFRFPRTWWQSAEDVHREKIQLDLEAEFYFTHLIMVFKSPRPAAMVLDRSQDFGKTWKPYKYFATNCSATFGLEDDVVKKGAICTSRYSNPFPCTGGEVIFRALSPPYDIENPYSAKVQEQLKITNLRVRLLKRQSCPCQINDLNAKPHHFMHYAVYDFIVKGSCFCNGHADQCLPVEGFRPIKAPGAFHVVHGRCMCKHNTAGSHCQHCAPLYNDRPWEAADGRTGAPNECRTCKCNGHADTCHFDVNVWEASGNRSGGVCNNCQHNTEGQHCQRCKPGFYRDLRRPFSAPDACKACSCHPVGSAILPFSSVTFCDPSNGDCPCKPGVAGPHCDRCMVGYWGFGDYGCRPCDCAGSCDPLTGDCISSNADVDWYHEVPAFHSMHNKSEPSWEWEDEQGFSALRHSGKCECKEQVLGNPKAFCGMKYSYVLKIKILSAHDKGSHAEVNVKIKKVLKSTKLKILRGKRTLYPESWTNRGCTCPILNPGLEYLVAGHEDVRTGKLIVNMKSFVQHWKPALGRRVMHILKRDCV
notes: also called netrin-4; wild-type Net4; source: HEK293, stably transfected, purified (streptactin-sepharose, thrombin digestion, SEC); not shown: double Strep II, N-terminal, cleaved
B3: laminin γ1 short arm fragment (γ1LN-LEa1-4) (domain or fragment, Mus musculus, UniProt P02468 34-492, looked up)
chain: AMDECADEGGRPQRCMPEFVNAAFNVTVVATNTCGTPPEEYCVQTGVTGVTKSCHLCDAGQQHLQHGAAFLTDYNNQADTTWWQSQTMLAGVQYPNSINLTLHLGKAFDITYVRLKFHTSRPESFAIYKRTREDGPWIPYQYYSGSCENTYSKANRGFIRTGGDEQQALCTDEFSDISPLTGGNVAFSTLEGRPSAYNFDNSPVLQEWVTATDIRVTLNRLNTFGDEVFNEPKVLKSYYYAISDFAVGGRCKCNGHASECVKNEFDKLMCNCKHNTYGVDCEKCLPFFNDRPWRRATAESASESLPCDCNGRSQECYFDPELYRSTGHGGHCTNCRDNTDGAKCERCRENFFRLGNTEACSPCHCSPVGSLSTQCDSYGRCSCKPGVMGDKCDRCQPGFHSLTEAGCRPCSCDLRGSTDECNVETGRCVCKDNVEGFNCERCKPGFFNLESSNPKGCTP
notes: also called Lmγ1; N-terminal laminin γ1 fragment; source: HEK293, stably transfected, purified (streptactin-sepharose, thrombin digestion, SEC); not shown: double Strep II, N-terminal, cleaved

Key:
laminin γ1 = laminin γ1 (UniProt P02468); details: cited from earlier work
[1] = target: laminin γ1 short arm fragment (γ1LN-LEa1-4) (Mus musculus) (UniProt P02468); experiment: not stated; binding assay of Supplementary Fig. 6c; method not given
[2] = target: the molecule itself; experiment: cross-linking; increasing crosslinker concentration; Supplementary Fig. 5a
[3] = target: B3; experiment: as above; details: both partners purified
[4] = target: T1, laminin γ1 short arm fragment (γ1LN-LEa1-4) (Mus musculus, UniProt P02468 34-492); experiment: MST
T1 chain: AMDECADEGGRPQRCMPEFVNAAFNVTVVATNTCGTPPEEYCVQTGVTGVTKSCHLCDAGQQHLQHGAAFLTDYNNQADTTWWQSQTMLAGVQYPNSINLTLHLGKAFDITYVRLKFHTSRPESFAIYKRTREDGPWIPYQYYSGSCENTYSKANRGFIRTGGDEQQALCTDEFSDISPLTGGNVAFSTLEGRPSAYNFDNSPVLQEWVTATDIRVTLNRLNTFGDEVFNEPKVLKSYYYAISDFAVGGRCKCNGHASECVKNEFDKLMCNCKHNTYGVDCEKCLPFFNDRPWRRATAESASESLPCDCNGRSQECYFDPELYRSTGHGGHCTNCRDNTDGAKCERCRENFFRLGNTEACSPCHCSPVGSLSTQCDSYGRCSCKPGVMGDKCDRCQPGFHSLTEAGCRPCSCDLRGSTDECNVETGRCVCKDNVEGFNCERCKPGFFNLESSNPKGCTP

[5] = target: B3; experiment: SEC; analytical size-exclusion chromatography of single proteins and of mixtures; details: both partners purified
[6] = target: T2, N-terminal laminin fragment β1LN-LEa1-4 (Homo sapiens, UniProt P07942 31-509); experiment: as above; details: both partners purified
T2 construct: also called laminin β1; Lmβ1; source: HEK293, stably transfected, purified (streptactin-sepharose, thrombin digestion, SEC); not shown: double Strep II, N-terminal, cleaved

[7] = target: B1; experiment: MST; 2 nM labelled γ1LN-LEa1-4; Net4 0.08-1,000 nM, Net4 mutants 0.45-4,000 nM; 50 mM Tris/HCl pH 7.4, 150 mM NaCl, 2 mM CaCl2, 3% BSA; NanoTemper Monolith NT.115; details: both partners purified
[8] = target: B3; experiment: not stated; binding assays of Supplementary Fig. 6a,b; methods not shown (the author contributions name SPR measurements); details: both partners purified
[9] = target: B3; experiment: MST; 2 nM labelled γ1LN-LEa1-4; Net4 0.08-1,000 nM, Net4 mutants 0.45-4,000 nM; 50 mM Tris/HCl pH 7.4, 150 mM NaCl, 2 mM CaCl2, 3% BSA; NanoTemper Monolith NT.115; details: both partners purified
[10] = target: B3; experiment: rotary-shadowing electron microscopy; images of the Net4-ΔC-γ1LN-LEa1-4 complex; details: both partners purified

T2 sequence (P07942 31-509): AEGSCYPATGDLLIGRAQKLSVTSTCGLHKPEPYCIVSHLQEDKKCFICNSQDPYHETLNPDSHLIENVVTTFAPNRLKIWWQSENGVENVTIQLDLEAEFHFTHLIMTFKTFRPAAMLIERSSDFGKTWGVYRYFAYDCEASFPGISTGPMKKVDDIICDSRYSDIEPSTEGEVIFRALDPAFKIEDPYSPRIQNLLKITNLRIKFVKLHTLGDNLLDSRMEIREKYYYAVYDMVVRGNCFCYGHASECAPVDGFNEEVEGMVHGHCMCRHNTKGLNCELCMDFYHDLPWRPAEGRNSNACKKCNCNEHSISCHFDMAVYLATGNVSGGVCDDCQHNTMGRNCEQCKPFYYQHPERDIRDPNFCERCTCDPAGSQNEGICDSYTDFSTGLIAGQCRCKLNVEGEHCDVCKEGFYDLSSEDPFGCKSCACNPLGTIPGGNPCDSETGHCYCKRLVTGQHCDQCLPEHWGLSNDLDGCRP

Molecule: laminin β1 (from UniProt P02469)
Kd (laminin γ1): 5000 nM

Molecule: B1
stoichiometry N [2]: 2 | stoichiometry N [3]: 1 | Kd [4]: 2.26 nM

Molecule: B3
binding result [6]: binds | Kd [7]: ~2 nM

Second part, the molecule after the results:

Kd [1]: 66 nM
Molecule: Net4-ΔC^E195A,R199A (from UniProt Q9JI33 20-462) (domain or fragment)

binding result [5]: binds
B2: N-terminal laminin fragment α1LN-LEa1-4 (domain or fragment, Homo sapiens, UniProt P25391 18-453, looked up)
chain: RQRGLFPAILNLASNAHISTNATCGEKGPEMFCKLVEHVPGRPVRNPQCRICDGNSANPRERHPISHAIDGTNNWWQSPSIQNGREYHWVTITLDLRQVFQVAYVIIKAANAPRPGNWILERSLDGTTFSPWQYYAVSDSECLSRYNITPRRGPPTYRADDEVICTSYYSRLVPLEHGEIHTSLINGRPSADDLSPKLLEFTSARYIRLRLQRIRTLNADLMTLSHREPKELDPIVTRRYYYSIKDISVGGMCICYGHASSCPWDETTKKLQCQCEHNTCGESCNRCCPGYHQQPWRPGTVSSGNTCEACNCHNKAKDCYYDESVAKQKKSLNTAGQFRGGGVCINCLQNTMGINCETCIDGYYRPHKVSPYEDEPCRPCNCDPVGSLSSVCIKDDLHSDLHNGKQPGQCPCKEGYTGEKCDRCQLGYKDYPTCVS
notes: also called laminin α1; source: HEK293, stably transfected, purified (streptactin-sepharose, thrombin digestion, SEC); not shown: double Strep II, N-terminal, cleaved

Kd [8]: ~50 nM
B4: Net4-ΔC^ΔKAPGA (domain or fragment, Mus musculus, UniProt Q9JI33 20-462, looked up)
chain: LNGVAGANSRCEKACNPRMGNLALGRKLRADTMCGQNATELFCFYSENADLTCRQPKCDKCNAAHSHLAHPPSAMADSSFRFPRTWWQSAEDVHREKIQLDLEAEFYFTHLIMVFKSPRPAAMVLDRSQDFGKTWKPYKYFATNCSATFGLEDDVVKKGAICTSRYSNPFPCTGGEVIFRALSPPYDIENPYSAKVQEQLKITNLRVRLLKRQSCPCQINDLNAKPHHFMHYAVYDFIVKGSCFCNGHADQCLPVEGFRPIFHVVHGRCMCKHNTAGSHCQHCAPLYNDRPWEAADGRTGAPNECRTCKCNGHADTCHFDVNVWEASGNRSGGVCNNCQHNTEGQHCQRCKPGFYRDLRRPFSAPDACKACSCHPVGSAILPFSSVTFCDPSNGDCPCKPGVAGPHCDRCMVGYWGFGDYGCRPCDCAGSCDPLTGDC
notes: the limits of the deletion are printed for the combined mutant; probably made like its parent m1; also called Net4 mutant in which the specific loop b (KAPGA) within LE1 was deleted

Kd [9]: ~2 nM | Kd [4]: 2.29 nM | stoichiometry N [10]: 1
B5: Net4 lacking the C-terminal domain (Net4-ΔC) (domain or fragment, Mus musculus, UniProt Q9JI33 20-462, looked up)
chain: LNGVAGANSRCEKACNPRMGNLALGRKLRADTMCGQNATELFCFYSENADLTCRQPKCDKCNAAHSHLAHPPSAMADSSFRFPRTWWQSAEDVHREKIQLDLEAEFYFTHLIMVFKSPRPAAMVLDRSQDFGKTWKPYKYFATNCSATFGLEDDVVKKGAICTSRYSNPFPCTGGEVIFRALSPPYDIENPYSAKVQEQLKITNLRVRLLKRQSCPCQINDLNAKPHHFMHYAVYDFIVKGSCFCNGHADQCLPVEGFRPIKAPGAFHVVHGRCMCKHNTAGSHCQHCAPLYNDRPWEAADGRTGAPNECRTCKCNGHADTCHFDVNVWEASGNRSGGVCNNCQHNTEGQHCQRCKPGFYRDLRRPFSAPDACKACSCHPVGSAILPFSSVTFCDPSNGDCPCKPGVAGPHCDRCMVGYWGFGDYGCRPCDCAGSCDPLTGDC
notes: lacks domain C); Two alternative constructs were cloned: one with an N-terminal His8 tag, one with an N-terminal double Strep II tag (not both on one chain); the tag was removed by thrombin; also called netrin-4; wild-type Net4; source: HEK293, stably transfected, purified (streptactin-sepharose or nickel TALON beads, thrombin digestion, SEC); not shown: double Strep II, N-terminal, cleaved; …
